T1: IL1R1/CD121a (Sino biological, 10126-H08H) (UniProt P14778 18-332)
T1 construct: Bought protein
T1 sequence (looked up): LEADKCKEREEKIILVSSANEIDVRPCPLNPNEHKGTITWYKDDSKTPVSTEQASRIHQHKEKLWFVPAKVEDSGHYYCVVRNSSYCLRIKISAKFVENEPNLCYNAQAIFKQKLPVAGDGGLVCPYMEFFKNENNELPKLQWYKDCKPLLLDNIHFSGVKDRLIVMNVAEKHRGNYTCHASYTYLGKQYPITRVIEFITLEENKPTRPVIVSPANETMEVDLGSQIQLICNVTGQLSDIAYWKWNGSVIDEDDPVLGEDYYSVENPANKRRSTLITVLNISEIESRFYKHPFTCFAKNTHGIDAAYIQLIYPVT

T2: IL1R7/IL-18RAcP (Sino biological, 10176-H08H) (UniProt O95256 20-356)
T2 construct: Bought protein
T2 sequence (looked up): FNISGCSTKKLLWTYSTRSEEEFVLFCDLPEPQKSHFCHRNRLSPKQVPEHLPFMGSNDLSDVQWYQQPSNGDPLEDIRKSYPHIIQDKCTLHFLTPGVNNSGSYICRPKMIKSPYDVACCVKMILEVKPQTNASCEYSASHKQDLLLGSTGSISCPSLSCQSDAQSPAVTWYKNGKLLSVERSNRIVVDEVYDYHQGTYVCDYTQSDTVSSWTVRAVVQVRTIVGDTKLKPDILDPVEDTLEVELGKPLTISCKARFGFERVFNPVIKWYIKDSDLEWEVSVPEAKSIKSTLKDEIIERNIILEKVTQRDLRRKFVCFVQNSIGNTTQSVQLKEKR

T3: IL1R9/IL1RAPL2 (Sino biological, 10156-H08H) (UniProt Q9NP60 17-354)
T3 construct: Bought protein
T3 sequence (looked up): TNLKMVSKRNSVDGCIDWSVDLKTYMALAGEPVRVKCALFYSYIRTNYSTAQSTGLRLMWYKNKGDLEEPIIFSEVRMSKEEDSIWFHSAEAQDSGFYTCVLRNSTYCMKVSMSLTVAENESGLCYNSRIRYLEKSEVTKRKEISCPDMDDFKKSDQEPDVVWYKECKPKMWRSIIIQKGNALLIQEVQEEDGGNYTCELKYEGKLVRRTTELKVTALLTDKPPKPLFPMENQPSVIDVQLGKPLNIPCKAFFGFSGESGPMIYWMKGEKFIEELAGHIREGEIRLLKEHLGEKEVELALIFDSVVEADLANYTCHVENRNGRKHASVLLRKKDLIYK

T4: IL1R3/IL1RAP (Sino biological, 10121-H08H) (UniProt Q9NPH3 21-359)
T4 construct: Bought protein
T4 sequence (looked up): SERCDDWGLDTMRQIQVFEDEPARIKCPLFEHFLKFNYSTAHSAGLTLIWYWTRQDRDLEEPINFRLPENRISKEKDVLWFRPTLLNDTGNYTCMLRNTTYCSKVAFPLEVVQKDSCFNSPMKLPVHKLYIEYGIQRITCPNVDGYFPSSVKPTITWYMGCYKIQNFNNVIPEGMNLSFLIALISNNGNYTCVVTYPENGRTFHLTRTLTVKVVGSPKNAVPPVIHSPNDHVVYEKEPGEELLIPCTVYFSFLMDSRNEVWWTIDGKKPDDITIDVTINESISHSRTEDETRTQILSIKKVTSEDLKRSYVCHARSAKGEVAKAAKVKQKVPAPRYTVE

T5: IL1R2/CD121b (Sino biological, 10111-H08H) (UniProt P27930 14-343)
T5 construct: Bought protein
T5 sequence (looked up): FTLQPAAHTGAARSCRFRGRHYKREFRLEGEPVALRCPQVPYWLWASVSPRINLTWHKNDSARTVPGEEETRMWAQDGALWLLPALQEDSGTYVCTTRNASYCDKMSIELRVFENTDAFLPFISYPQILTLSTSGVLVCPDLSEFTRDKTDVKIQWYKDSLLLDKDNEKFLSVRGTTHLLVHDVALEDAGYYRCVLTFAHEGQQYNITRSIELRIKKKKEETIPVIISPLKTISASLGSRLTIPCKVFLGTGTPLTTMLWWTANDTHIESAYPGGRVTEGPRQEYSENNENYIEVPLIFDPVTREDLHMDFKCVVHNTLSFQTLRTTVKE

B1: Chimeric 31C8 (antibody, human IgG2, kappa, V domains shown)
VH: QVQLQQSGPELVRPGASVTLSCKASGYIFIDSEMHWVKQTPVHGLEWIGAIDPETGDTVYNQKFKGKATLTADKSSSTASMELSSLTSEDSAVYYCTGSTTDYYFAYWGQGTTLTVSS
VL: DIVMTQAAFSNPVTLGTSASISCRSSKSLLHSNGIIYLYWYLQKPGQSPQLLIYQMSNLASGVPDRFSSSGSGTDFTLRISRVEAEDVGVYYCAQNLELPFTFGSGTKLEIKR
notes: also called xi31C8
B2: RG6149 (antibody Ab2 in CN104334582, prepared in-house) (antibody, human IgG2, kappa, V domains shown)
VH: EVQLVQSGAEVKKPGESLKISCKGSGYSFTNYWIGWVRQMPGKGLEWMGIIYPGNSDTRFSPSFQGQVTISADKSITTAYLQWSSLKASDTAMYYCARHGTSSDYYGLDVWGQGTTVTVSS
VL: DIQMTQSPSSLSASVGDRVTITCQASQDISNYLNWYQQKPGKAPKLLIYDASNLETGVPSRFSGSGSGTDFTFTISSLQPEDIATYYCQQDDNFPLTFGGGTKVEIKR
notes: Control anti-ST2 antibody
B3: GSK3772847 (antibody STLM208 in CN104411333, prepared in-house) (antibody, human IgG2, kappa, V domains shown)
VH: EVQLLESGGGLVQPGGSLRLSCAASGFTFSIYDMIWVRQAPGKGLEWVSSIRGEGGGTYYADSVKGRFTISRDNSKNTLYLQMNSLRAEDTAVYYCARDPWSTEGSFFVLDYWGQGTLVTVSS
VL: EIVLTQSPATLSLSPGERATLSCRASQSVDDDLAWYQQKPGQAPRLLIYDASNRATGIPARFSGSGSGTDFTLTISSLEPEDFAVYYCQQYITAPLTFGQGTKVEIKR
notes: Control anti-ST2 antibody
B4: Humanized 31C8-1.1 (antibody, human IgG2, kappa, V domains shown)
VH: EVQLVQSGAEVKKPGATVKISCKASGYIFIDSEMHWVQQAPGKGLEWMGAIDPETGDTVYAEKFQGRVTITADKSSSTAYMELSSLRSEDTAVYYCTGSTTDYYFAYWGQGTLVTVSS
VL: DIQMTQSPSSLSASVGDRVTITCRSSKSLLHSNGIIYLYWYQQKPGKAPKLLIYQLSNLASGVPSRFSSSGSGTDFTLTISSLQPEDFATYYCAQNLELPFTFGQGTKVEIKR
notes: also called hz31C8-1.1; hz31C81-1.1
B5: Humanized 31C8-1.2 (antibody, human IgG2, kappa, V domains shown)
VH: B4 VH with E1Q, E10K, E62K, Q65K
VL: B4 VL
notes: also called hz31C8-1.2; hz31C81-1.2

Substitutions are numbered along the chain they refer to.

For one assay, the target named is T1, IL1R1/CD121a (Sino biological, …). Briefly: ELISA, plate coated with 2 µg/mL receptor. How it is done:
(§1) The anti-ST2 antibodies were diluted with PBS buffer to a concentration of 1.5 mg/mL. After being treated at 72° C. for 5 min, the samples were assayed by ELISA for their binding activity for an antigen The ELISA procedure is as follows: A 96-well plate was coated with 2 µg/mL hST2-ECD-mFc as the antigen at 100 µL/well and incubated at 4° C. overnight. After the antigen not adsorbed was well washed off, the non-specific binding sites were blocked with a blocking buffer (PBST containing 1% bovine serum albumin). After the plate was washed three times with a washing buffer (PBST, PBS containing 0.05% (v/v) Tween 20), the anti-ST2 antibodies (serially diluted 3-fold from an initial concentration of 1.5 µg/mL to 8 concentrations) were added at 100 µL/well, and the plate was incubated at 37° C. for 1 h. […] After the plate was incubated at room temperature for 5 min, a stop solution (2 N H₂SO₄) was added to stop the reactions. The signals were read at 450 nm using a plate reader (PE, Envision). The data were analyzed using GraphPad Prism5, and the EC₅₀ values were calculated.
(§2) ST2 belongs to the IL1R receptor family. The cross-reactivity of the anti-ST2 antibodies with the IL1R family receptors was determined by ELISA. The IL1R family receptors include IL1R⅟CD121a (Sino biological, 10126-H08H), IL1R2/CD121b (Sino biological, 10111-H08H), IL1R3/IL1RAP (Sino biological, 10121-H08H), IL1R7/IL-18RAcP (Sino biological, 10176-H08H), IL1R8/IL1RAPL1 (Sino biological, 10177-H08H), and IL1R9/IL1RAPL2 (Sino biological, 10156-H08H). ELISA assays were performed using the proteins described above as antigens (2 µg/mL). See Example 13 for the specific ELISA procedure. No binding means that the antibody remains unbound to the antigen when at the highest concentration.
(In general: ELISA stands for enzyme-linked immunosorbent assay.)
Take B1: the binding result is reported as “no binding”.
On the same count and under the same terms, then B2, with “no binding”.
As to B3, the binding result is recorded as “no binding”.
On the same count and under the same terms, then B4, with “no binding”; and B5, with “no binding”.

In another assay the target is T2, IL1R7/IL-18RAcP (Sino biological, …). Description: ELISA, plate coated with 2 µg/mL receptor. How it is done:
as §1, §2
For B1, the binding result is “no binding”.
Same read-out and setting: for B2 the value was “no binding”; for B4, “no binding”.
On the same count and under the same terms, then B5, with “no binding”.

A further assay deals with T3, IL1R9/IL1RAPL2 (Sino biological, …). Briefly: ELISA, plate coated with 2 µg/mL receptor. The method, then: as §1, §2
Turning to B1, the binding result is reported as “no binding”.
Same read-out and setting: then B2, with “no binding”.
Regarding B3, the binding result is given as “no binding”.
In the case of B4, the binding result is given as “no binding”.
Still for that read-out and setting: for B5 the value was “no binding”.

A further assay has as its target T4, IL1R3/IL1RAP (Sino biological, …). Briefly: ELISA, plate coated with 2 µg/mL receptor. How it is done:
as §1, §2
Regarding B1, the binding result is listed as “no binding”.
As to B2, the binding result is “no binding”.
As to B3, the binding result is listed as “no binding”.
In the case of B4, the binding result was “no binding”.
In the case of B5, the binding result is given as “no binding”.

The target of a further assay is T5, IL1R2/CD121b (Sino biological, …). Briefly: ELISA, plate coated with 2 µg/mL receptor. How it is done:
as §1, §2
Consider B1, for which the binding result is reported as “no binding”.
Regarding B2, the binding result is “no binding”.
The same measure, in the same setting: for B4 the value was “no binding”; for B5, “no binding”.

Source of the values: patent publication US20230272086A1 (CHIA TAI TIANQING PHARMACEUTICAL GROUP, published 2023).
